This note sets out measurements from the nanobody polyreactivity screen of Harvey et al. (2022).

This data set can be described thus: yeast display, Sf9 membrane polyspecificity reagent, FACS + sequencing; frameworks hold sequencing errors. Summed up:
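Galactose induction of a Saccharomyces cerevisiae BJ5465 synthetic nanobody display library ran 36–48 hours. The cells were then stained for 1 hour at 4 °C with 10% biotinylated, detergent-solubilized Sf9 membrane reagent, pulled down on streptavidin microbeads and FACS-sorted into low and high (top ~1%) gates on expression and reagent-binding fluorescence. Labels for polyreactivity follow the gate of origin.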
For the sequence “QIQLVESGGGLVQAGGSLRLSCAASGGIFYINAMGWYRQAPGKERELVAAITESSDITYYADSVKGRFTISRDNAKNSVYLQINSLKPEDTAVYYCAAEFVRSGDDYWGQGTQVTVSS”, the “polyreactivity (PSR sort gate)” value is listed as “low polyreactivity”.

Turning to “QVQLVESGGGLVQAGGSLRLSCAASGSIIKPYAMGWYRQAPGKERDLVAAIRSSGGRTNYADSVKGRFTISRDNAKNTVYLQMNSLKPEDTAVYYCAALVRVTGTYYTKYDFWGQGNQVTVSS”, the “polyreactivity (PSR sort gate)” value is on record as “high polyreactivity”.

Turning to “QVQLVESGGGLVQAGGSLRLSCAASGRTIGGYAMGWYRQAPGKEREMVAAINYSGGTTYYADSVKGRFTISRDNAKNTVYLQMNSLKPEDTAVYYCIRDYHSESGNPGYQYGYWGQGTQVTVSS”, the “polyreactivity (PSR sort gate)” value is given as “high polyreactivity”.

Consider “QVHLVESGGGLVQAGGSHRLSCAASGFTIHRYAMGWYRQAPGKERELVAGITRRSGSTFYADSVKGRFTISRDNAKNTVFLQMNSLKPEDTAVYYCAATVPGLHWIYDYWGQGTQVTVSS”, for which the “polyreactivity (PSR sort gate)” value is “high polyreactivity”.

For “QVQLVESGGGLVQAGGSRRLSCAASGFFFDVNAMGWYRQAPGTEREWVATISKRGGTTYYADSVKGRFTISRDNAKNTVYLQMNSLKQEDTAVYYCAARHQSLRSYRYDYWGQGTQVTVSS”, the “polyreactivity (PSR sort gate)” value is listed as “low polyreactivity”.

In the case of “QVQLVESGGGLVQAGGSLRLSCAASGSIFYVYAMGGYRQAPGKERELVAAITSGSSTNYADSVKGRFTISRDNAKNTVYLQMNSLKPEDTAVYYCAASFRDDFPQRLDYWGQGTQVTVSS”, the “polyreactivity (PSR sort gate)” value is “low polyreactivity”.

“QVQLVESGGGLVQAGGSLRLSCAASGFIFDKYAMGWYRQAPGKERELVATITSGGSTYYADSVKGRFTISRDNAKNTVYLQMNSLKPEDTAVYYCAALDYGYRWYRYYYWGQGTQVTVSS”: the “polyreactivity (PSR sort gate)” value is recorded as “high polyreactivity”.

As for “QVQLVESGGGLVQAGGSLRLSCAASGRTFLPNAMGWYRQAPGKERELVAVITSGGSTNYADSVKGRFTISRDNAKNTVYLQMNSLKQEDTAVYYCAARRWSSSQGHWGKSAGYGYWGQGTQVTVSS”, the “polyreactivity (PSR sort gate)” value was “low polyreactivity”.

With “QVQLVESGGGLVQAGGSLRFTCAASGRIFRTNAMGWYRQAHGKEREFVAAISKDGGRTYYADSVKGRFTISRDNAKNTVYLQMNSLKPEDTAVFYCNVLVKHSTTTYSTYDYWGQGSQVTVSS”, the “polyreactivity (PSR sort gate)” value is “high polyreactivity”.

Consider “QVQLVESGGGLVQAGGSLRLSCAASGFTINFYGMGWYRQAPGKERELVAAITASGGGSTYYADSVKGRFTISRDNAKNTVYLQMNSLKPEDTAVYYCNADYTGSFYTYDYWGQGTQVTVSS”, for which the “polyreactivity (PSR sort gate)” value is “low polyreactivity”.

As for “QVQLVESGGGLVQAGGSLRLSCAASGRILIRKAMGWYRQAPGKERELVAAINRGGGSTYYADSVKGRITISRDNAKNTVYLQMISLNPDDTAVYYCAADRKAGYSRVDGDYWGQGTQVTVSS”, the “polyreactivity (PSR sort gate)” value is recorded as “low polyreactivity”.

In the case of “QVQHVESGGGLVQAGGSLRLSCAASGGIFERKDMGWYRQAHGKERQLVAGISSVGSTNYADSVKWRFTISRDNAKNTVYLQMNSLKPEDTAVYYCAAKRVRALYVGSEGGYWGQGTQVTVSS”, the “polyreactivity (PSR sort gate)” value was “low polyreactivity”.

Take “QVQLVESGGGLVQAGGSLRLSCAASGSIYDPYAMGWYRQAPGKERELVAAINGGSGSTFYADSVKGRFTISRDNAKNTVYFQMNSLKPEDTAVYYCAAKIWRYSPSYYPEPRGDYWGQGTQVNVSS”: the “polyreactivity (PSR sort gate)” value is listed as “low polyreactivity”.

Take “QVQLVESGGGLVQAGGSLRLSCAASGFIFKYYAMGWYRQAPGKERELVAAISRRGGSTFYADSVKGRFTISRDNAKNTVYLQMNSLKPEDTAVYYCAAYYYYSAYGDDYWGQGTQVTVSS”: the “polyreactivity (PSR sort gate)” value is “high polyreactivity”.

Turning to “QVQLVETGGGLVQAGGSHRLSCAASGFIIPYYAKGWSRQPPGKERELLAAIDSGGSTNYADSVKGRFTISRDNAKNTVSLQMNRLIPEDTAVYYCAVPSYGVNIWGGFDEYNYWGQGTQVTVSS”, the “polyreactivity (PSR sort gate)” value is recorded as “high polyreactivity”.

As to “QVQLVESGGGLVQAGGSLRLSCAASGRIFDYYAMGWYRQAPGNERELVAAINSGGSTYYADSVKGRFTISRDNAKNTVSLQMNSLKPEDTAVYYCNALRKSLRGGDYWGQGTQVTVSS”, the “polyreactivity (PSR sort gate)” value is “high polyreactivity”.

As for “QVQLVESGGGLVQAGGSLRLSCAASGSIFRYYTMGWYRQAPGKERELVASISRGGNTYYADSVKGRFTISRDNAKNTVYLQMNSLKPEDTAVYYCNVRLSYSYISQSDWNFDYWGQGTQVTVSS”, the “polyreactivity (PSR sort gate)” value is “low polyreactivity”.

With “QVQLEESGGGLVQAGGSLRLSCASSGYIFATYAMGWYRQAPGKERELVAAITSTGSTYYADSVKGRFTISRDNAKNTVYLQMNSLKPEDTAVYYCAAVSGYRARYYLYYYWGQGTQVTVSS”, the “polyreactivity (PSR sort gate)” value is given as “high polyreactivity”.

On to “QVQLVESGGGLVQAGGSLRLSCAASGRIFYANAMGWYRQAPGKEWEFVASITYGGGSTYYADSVKGRFTISRDNAKNTVYLQMNSLKPEDTAVYYCAAGYYAQYEDYIRYDYWGQGTQVTVSS”, for which the “polyreactivity (PSR sort gate)” value was “low polyreactivity”.

Regarding “QVQLVESGGGLVQAGGSLRLSCAASGSTFEYNVMGWYRQAPGKERELVAAITSGASTNYADSVKGRFTISRDNAKNSVYLQMNSLKPEDTAVYYCAAGESGSFFIYYYWGQGTQVTVSS”, the “polyreactivity (PSR sort gate)” value is given as “low polyreactivity”.

On to “KVQLVESGGGLVQAGGSLRLSCAASGSTFYYYAMGWYSQAPGKERELVAAITSSTGSTYYADSVKGRFTISRDNAKNTVYLQMNSLKPVDTAVYYCAATDPYAYYWGQGTKVTVSS”, for which the “polyreactivity (PSR sort gate)” value is “high polyreactivity”.

As for “QVQLVESGGGLVQAGGSLRLSCAASGSTFRRYAMGWYRQAPGKERELVASISRSGGSTYYADSVKGRFTISRDNAKNTVYLQMNSLKPEDTAVYYCAKKPYKSAYDYSSAYDYWGQGTQVTVSS”, the “polyreactivity (PSR sort gate)” value is “high polyreactivity”.

“HVPLVESGGGIVQAGGRMRLSCAASGSTFTEYAMGGYRQAPGKQREWVAGISSDGSTKYADSVKGRFTISRDNAKNTVYLQMNSLNPEDSAVYYCNKDQSDAKFDYWGQGTQVTVSS”: the “polyreactivity (PSR sort gate)” value was “low polyreactivity”.

Consider “QVQLVESGGGLVQAGGSLRIRCAASGRIFNQYAMGWYRQAPGKERELVASITQRGGRTYYADSVKGRFTISRDNAKNTVYLQMNSLKPEDTAVYYCAKQCYYVTARTGYDYWGQGTQVTVSS”, for which the “polyreactivity (PSR sort gate)” value is “high polyreactivity”.

As for “QVQLVESGGGLVQAGGSLRLSCAASGSIFRYYAMGWYRQAPGKERELVAAISSNGGSTYYADSVKGRFTISRDNAKNTVYLQMNSLKPEDTAVYYCNAVKVGPYYFRSDYWGQGTQVTVSS”, the “polyreactivity (PSR sort gate)” value was “high polyreactivity”.

As for “QVQLVESGGGLVQAGGSLRLSCAASGSILYRNAMGWYRQAPGKERELVAGITRRGGSTYYADSVKGRFTISRDNAKNTVYLQMISLKPEDTAVYYCNVQRARRQRQYGYWGQGTQVTVSS”, the “polyreactivity (PSR sort gate)” value was “low polyreactivity”.

Regarding “QVQLVESGGGLVQAGGSLRLSCAASGSIFYDYMGWYRQAPGKERELVAVISYSGSSTYYADSVKGRFTISRDNAKNTVYLQMNSLKPEDTAVYYCAARNVNGWDYDYWGQGTQVTVSS”, the “polyreactivity (PSR sort gate)” value was “low polyreactivity”.

Regarding “QVQLVESGGGLVQAGGSLRLSCAASGRIFGNYAMGWSRQAPGKERELVSAITYSTGGTSTYADSVKGLFTISRDNAKNSVYLQMNSLKPEDTAVYYCAVRRQYRRAYSFSQSRYDYWGQGTQVTVSS”, the “polyreactivity (PSR sort gate)” value is “high polyreactivity”.

As for “QVQLVESGGGLVQAGGSLRLSCAASGSTFEYNAMGWYRQAPGKERELLADISYSDGSTYYADSVKGRFTISRDNAMNTVYLQMNSLKPEDTGVYYCAAYSGYGGVSMYYWGQGTHVTVSS”, the “polyreactivity (PSR sort gate)” value is “low polyreactivity”.

Take “QVQLVESGGGLVQAGGSLRLTCAASGLTFFYYAMGWYRQAPGKERELVAGISRSGGSTYYADSVKGRFTISRDYAKNTVYLQMNSLKPEDTAVYYCAKRTLVASYIYREGEYWGQGTQVTVSS”: the “polyreactivity (PSR sort gate)” value is on record as “high polyreactivity”.

On to “QVQLVESGGGLDQAGGSLRLSCAASGMTFHPYAMGWYRQAPGKERELVAAISSRGTSTYYADSVKGRFTISRDIAKNTVYLQMNSLKPEDTAVYYCAAEVITIGLYRYGYWGQGTQVTVSS”, for which the “polyreactivity (PSR sort gate)” value was “high polyreactivity”.

Regarding “QVQLVESGGGLVQAGGSLRLSCAASGSTFVSYAMGWSRQAPGKERELVAAISISDSSTYYADSVKGRFTISRDNAKNTVFLQMNSLKPEDTAVYYCNRYDYWGQGTQVTVSS”, the “polyreactivity (PSR sort gate)” value was “low polyreactivity”.

In the case of “QVQLVESGGGLVQAGGSLRLSCAASGSTLEFNARGWYRQAPGKERELVAVINRSDGSTYYAASVKGRFTISRDNAKNTVYLQMNSLKPEDTAVYYCAADRHQVSVISTEDYWGQGTQVTVSS”, the “polyreactivity (PSR sort gate)” value is reported as “low polyreactivity”.

With “QVQLVDSGGGLVQAGGSLRLSSAASGYIFVVNAMGWYRPAPGKERELVAAIDWGGGSTYADSVKGRFTISRDNAKNTVYLQMNSLKPEDTAVYYCAADLWPYPTDYWGQGTQVTVSS”, the “polyreactivity (PSR sort gate)” value is recorded as “low polyreactivity”.

Take “QVQLVESGGGLVQAGGSLRLSCAASGFIFSTNAMGWYRQAPGKERELVAAISRRGGNTYYADSVKGRFTISRDNAKNTVYLQMNSLKPEDTAVDYCNAVFRSGGLDYWGQGTQVTVSS”: the “polyreactivity (PSR sort gate)” value was “high polyreactivity”.

Take “QVQLVESGGGLVQAGGSLRLSCAASGSTFVYNAMGWYRQAPGKERELVAAITNSGSTYYADSVKGRFTISRDNAKNTVYLQMNSLKPEDTAVYDCAARSRVYWARSGYWGQGTQVTVAS”: the “polyreactivity (PSR sort gate)” value is “low polyreactivity”.

With “QVQLVESGGGLVQAGGSLRLSCAASGITFVVYTMGWYRQAPGKERELVASISISGDSTNYAESVKGRFTISRDNAKNTVYLQMNILKPEDTAVYYCNAAFYHVQFPWIAYEYWGQGTQVTVSP”, the “polyreactivity (PSR sort gate)” value was “low polyreactivity”.

With “QVQLVESGGGLVQAGGSLRLSCAASGRNFLPNAMGWSRPAPGKERELVAAITSGGGSTYYADSVKGRFTISRDKAKNTVYLQMNSLKPEDTAVYYCAKQPYRGKYYYWGQGTQVTVSS”, the “polyreactivity (PSR sort gate)” value is on record as “high polyreactivity”.

On to “QVQLEESGGGLVQAGGSLRLSCAASGSIIYAYAMGWSRQAPGKERELVDGIRDGGSTYYADSVKWRFTISRDNAKNTVYLQMNSLKPADTAVYYCAAGPRIRDDYWGQGTQVTVSS”, for which the “polyreactivity (PSR sort gate)” value was “low polyreactivity”.

Consider “QVQLVESVGGLVQAGRILRISCAASGFTLYYYDKGWYRQAPGKQRELVAGISSGDSTYYADSLKGRFTISRDNAKNTVYLHMNSLKPEDTAVYYCATGDSLYYRYWSNNYWGQGTQVTVSS”, for which the “polyreactivity (PSR sort gate)” value was “high polyreactivity”.

For the sequence “QVQLVESGGGLVQAGGSLRLSCAASGSTFDPNAMGWYRQAPGKERELVASITSRGGSTYYADSVKGRFTISRDNAKNTVYLQMNSLKPEDTAVYYCAAVGGATYSWNGYSWYAWHNYWGQGTQVTVSS”, the “polyreactivity (PSR sort gate)” value is recorded as “low polyreactivity”.
